{"source": "paper PMC9800739", "about": "“Epigenetic drugs in somatostatin type 2 receptor radionuclide theranostics and radiation transcriptomics in mouse pheochromocytoma models” (Theranostics, 2023)", "key": {"[1]": {"tested_on": "midgut neuroendocrine liver metastases", "settings": "after a short course of vorinostat; cited from earlier work"}, "[2]": {"tested_on": "MPC tumors", "type": "in vivo, mouse", "settings": "mouse, in vivo", "protocol": "(§1) During anesthesia, animals were continuously warmed at 37°C. […] Animals were sacrificed using CO2 inhalation and cervical dislocation.\n(§2) 107 (30%), muscle (0%), kidneys (25%), and liver (35%).\n(§3) 116 attenuation. Images were post-processed and analyzed using ROVER (ABX). Three-\n118 kidneys (15%), and liver (25%). […]"}, "[3]": {"tested_on": "MPC tumors", "assay": "SPECT imaging of [177Lu]Lu-DOTA-TATE uptake in MPC allograft mice", "settings": "mouse, in vivo", "protocol": "as §1\n(§4) Small animal single-photon emission computed tomography (SPECT) was initiated 22‒26 hours after radiotracer injection using the nanoSPECT/CT scanner (Mediso Medical Imaging Systems). […] Activity concentration in tissues was determined and reported as AV mean (VOI-averaged volume activity AV tissue 24h, MBq/mL). Details on quantitative SPECT image analysis are provided in Supplemental Information 1.5.\nas §2, §3\n(§5) 118 kidneys (15%), and liver (25%).\n(§6) 119 1.6 Sstr2 promoter methylation analysis\n(§7) 122 Bisulfite Kit (Qiagen, Hilden, Germany). Bisulfite-converted DNA was amplified using a\nAmplicon size (195bp) was confirmed\n(§8) 125 Switzerland). Electropherograms were compared to PCR products amplified from bisulfite-\n(§9) 127 an unmethylated 900bp-DNA fragment. The latter was generated by amplification of genomic\n(§10) 129 of primers are provided in (Table S 2)."}, "[4]": {"tested_on": "MTT tumors", "assay": "SPECT imaging of [177Lu]Lu-DOTA-TATE uptake in MTT allograft mice", "settings": "mouse, in vivo", "protocol": "as §1, §4, §2, §3, §5, §6, §7, §8, §9, §10"}}}
{"compound": "O=C(CCCCCCC(=O)Nc1ccccc1)NO", "note": "[vorinostat]", "values": [{"measurement": "increase in [68Ga]Ga-DOTA-TATE uptake in tumors", "setting": "[1]", "value": 10, "unit": "%"}]}
{"compound": "C[C@@H](O)[C@H](NC(=O)[C@@H]1CSSC[C@H](NC(=O)[C@@H](Cc2ccccc2)NC(=O)CN2CCN(CC(=O)O)CCN(CC(=O)O)CCN(CC(=O)O)CC2)C(=O)N[C@@H](Cc2ccc(O)cc2)C(=O)N[C@H](Cc2c[nH]c3ccccc23)C(=O)N[C@@H](CCCCN)C(=O)N[C@@H]([C@@H](C)O)C(=O)N1)C(=O)O", "note": "[[^64Cu]Cu-DOTA-TATE, metal not drawn]", "values": [{"measurement": "SUVmean plateau, MPC compared to MTT allografts", "setting": "[2]", "value": 14, "unit": "fold"}]}
{"compound": "C[C@@H](O)[C@H](NC(=O)[C@@H]1CSSC[C@H](NC(=O)[C@@H](Cc2ccccc2)NC(=O)CN2CCN(CC(=O)O)CCN(CC(=O)O)CCN(CC(=O)O)CC2)C(=O)N[C@@H](Cc2ccc(O)cc2)C(=O)N[C@H](Cc2c[nH]c3ccccc23)C(=O)N[C@@H](CCCCN)C(=O)N[C@@H]([C@@H](C)O)C(=O)N1)C(=O)O", "note": "[[^177Lu]Lu-DOTA-TATE, metal not drawn]", "values": [{"measurement": "AV max 24h tumor, sub-cohort", "setting": "[3]", "value": "9.52 ± 0.58", "unit": "MBq/mL"}, {"measurement": "AV mean 24h, MPC compared to MTT allograft mice", "setting": "[3]", "value": 8, "unit": "fold"}, {"measurement": "mean tumor AV 24 h (single animal shown in image)", "setting": "[3]", "value": 4.14, "unit": "MBq/mL"}, {"measurement": "AV max 24h tumor, sub-cohort", "setting": "[4]", "value": "1.19 ± 0.10", "unit": "MBq/mL"}, {"measurement": "mean tumor AV 24 h (single animal shown in image)", "setting": "[4]", "value": 0.59, "unit": "MBq/mL"}]}
